Assay results reported in US20120177651A1 (published 2012).

How the values were obtained:
[1] = biological target: T1, recombinant human HGF (human, UniProt P14210 32-728); assay: SPR (Biacore T100), human HGF immobilised on CM5 chip, antibody as analyte, bivalent analyte model, 25 C
T1 construct: also called Hepatocyte Growth Factor; Scatter Factor

[2] = biological target: T1, recombinant human HGF; assay: SPR (Biacore T100), human HGF immobilised on CM5 chip, antibody as analyte, 1:1 binding model, 25 C
[3] = biological target: T1, recombinant human HGF; assay: ELISA on plate-coated recombinant human HGF, detection with anti-human kappa light chain peroxidase conjugate, Abs 490 nm
[4] = biological target: T2, human VEGF (human, UniProt P15692-4 27-191, limits assumed); assay: SPR (Biacore T100), antibody captured on Protein A C1 chip, human VEGF as analyte
T2 construct: The background says that VEGF-A isoforms form homodimers

[5] = biological target: T1, recombinant human HGF; assay: cell-based or functional assay; design: unit not given beside the values
[6] = biological target: T1, recombinant human HGF; assay: cell-based or functional assay

T1 sequence (P14210 32-728 limits assumed): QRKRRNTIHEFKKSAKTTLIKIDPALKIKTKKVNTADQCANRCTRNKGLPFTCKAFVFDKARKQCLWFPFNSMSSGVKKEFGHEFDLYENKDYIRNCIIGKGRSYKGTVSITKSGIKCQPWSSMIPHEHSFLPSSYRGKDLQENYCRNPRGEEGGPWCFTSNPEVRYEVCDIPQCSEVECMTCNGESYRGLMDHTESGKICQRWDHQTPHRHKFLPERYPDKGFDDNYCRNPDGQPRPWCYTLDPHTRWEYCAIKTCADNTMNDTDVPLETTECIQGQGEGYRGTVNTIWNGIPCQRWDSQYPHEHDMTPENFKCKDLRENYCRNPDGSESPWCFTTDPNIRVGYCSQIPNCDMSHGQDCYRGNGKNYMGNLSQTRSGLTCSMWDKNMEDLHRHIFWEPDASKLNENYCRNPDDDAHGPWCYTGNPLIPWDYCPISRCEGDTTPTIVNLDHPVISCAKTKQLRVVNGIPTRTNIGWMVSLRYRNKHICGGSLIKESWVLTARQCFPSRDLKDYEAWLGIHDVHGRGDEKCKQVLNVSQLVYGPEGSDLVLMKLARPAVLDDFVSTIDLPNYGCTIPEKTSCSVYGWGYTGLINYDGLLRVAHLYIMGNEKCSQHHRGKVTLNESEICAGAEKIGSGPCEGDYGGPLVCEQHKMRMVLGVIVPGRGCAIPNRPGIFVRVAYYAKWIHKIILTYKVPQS
T2 sequence (P15692 other isoform, or with tags, fused parts or gaps limits assumed): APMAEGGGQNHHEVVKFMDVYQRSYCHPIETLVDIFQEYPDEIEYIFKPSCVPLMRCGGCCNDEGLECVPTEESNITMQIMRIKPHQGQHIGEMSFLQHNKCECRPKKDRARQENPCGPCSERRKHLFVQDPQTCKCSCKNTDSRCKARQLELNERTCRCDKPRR

| Kd [1] | koff [1] | kon [1] | Kd [2] | koff [2] | kon [2] | EC50 (read off the curve) [3] | IC50, MET phosphorylation in Bx-PC3 cells (mean of three experiments) [5] | IC50, % phospho AKT in Bx-PC3 cells (MSD, mean of two experiments) [6] | IC50, % phospho ERK in Bx-PC3 cells (MSD, mean of two experiments) [6] | IC50, % phospho MET in Bx-PC3 cells (MSD, mean of two experiments) [6] | IC50, Bx-PC3 cell migration with 25 ng/ml HGF (Oris, mean of three experiments) [6] | Binder | binding result [4] |
| --- | --- | --- | --- | --- | --- | --- | --- | --- | --- | --- | --- | --- | --- |
| 1.62 nM | 0.000204 s⁻¹ | 126000 M⁻¹ s⁻¹ | 1.54 nM | 0.00011 s⁻¹ | 71400 M⁻¹ s⁻¹ | ~1 nM | 4.5 | – | – | – | – | BPC2014 (antibody, human IgG1, kappa, V domains shown, Full human IgG1 (Fc wild type) / kappa anti-HGF antibody, expressed in HEK 293-6E cells; also called HE2B8-4; anti-HGF mAb LRMR2B8) VH: QVQLVQPGAEVKKPGTSVKLSCKASGYTFTTYWMHWVRQAPGQGLEWIGEINPTNGHTNYNQKFQGRATLTVDKSTSTAYMELSSLRSEDTAVYYCARNYVGSIFDYWGQGTLVTVSS VL: DIVMTQSPDSLAMSLGERVTLNCKASENVVSYVSWYQQKPGQSPKLLIYGASNRESGVPDRFSGSGSATDFTLTISSVQAEDVADYHCGQSYNYPYTFGQGTKLEIKR | no binding (tested: human VEGF up to 256 nM) |
| 0.58 nM | 0.000132 s⁻¹ | 228000 M⁻¹ s⁻¹ | 0.44 nM | 8.19e-05 s⁻¹ | 186000 M⁻¹ s⁻¹ | ~0.7 nM | 4.2 | 0.63 nM | 0.98 nM | 0.4 nM | 0.33 nM | BPC2015 (antibody, human IgG1, kappa, V domains shown, Full human IgG1 (Fc wild type) / kappa anti-HGF antibody, expressed in HEK 293-6E cells; also called HuL2G7; anti-HGF mAb HuL2G7) VH: EVQLVQSGAEVKKPGASVKVSCKVSGYTFSGNWIEWVRQAPGKGLEWIGEILPGSGNTNYNEKFKGKATMTADTSTDTAYMELSSLRSEDTAVYYCARGGHYYGSSWDYWGQGTLVTVSS VL: DIVMTQSPSSLSASVGDRVTITCKASENVVTYVSWYQQKPGKAPKLLIYGASNRYTGVPDRFSGSGSGTDFTLTISSLQPEDFATYYCGQGYSYPYTFGQGTKLEIKR | – |
| 0.83 nM | 0.000202 s⁻¹ | 242000 M⁻¹ s⁻¹ | 0.88 nM | 0.000122 s⁻¹ | 140000 M⁻¹ s⁻¹ | ~1 nM | 3.6 | – | – | – | – | BPC2013 (antibody, human IgG1, kappa, V domains shown, Full human IgG1 (Fc wild type) / kappa anti-HGF antibody, expressed in HEK 293-6E cells; also called 2.12.1; anti-HGF mAb 2.12.1) VH: QVQLQESGPGLVKPSETLSLTCTVSGGSISIYYWSWIRQPPGKGLEWIGYVYYSGSTNYNPSLKSRVTISVDTSKNQFSLKLNSVTAADTAVYYCARGGYDFWSGYFDYWGQGTLVTVSS VL: not shown | no binding (tested: human VEGF up to 256 nM) |
